Assay results: US8507245B2, “Site-directed pegylation of arginases and the use thereof as anti-cancer and anti-viral agents” (priority 2009, dated 2013)
Positions count from the first letter of the chain named. Names and notes keep the numbering of the source. Where two headings read alike, the source gives them in different places.

Assays:
[1] = tested on: HCT-15 human colorectal cancer cells; assay type: in vivo, BALB/c nude mice
Protocol: Athymic nude BALB/c mice (age of 6-8 weeks) were housed under sterile conditions with 12 hour light-dark cycle and provided with autoclaved feed ad libitum. The mice were acclimated for at least 1 week before the start of experiments. Each nude mouse was implanted with ˜3 mm^3 of in vivo maintained HCT-15 human colorectal cancer cells to the right axilla subcutaneously. When stable palpable tumours of ˜5 mm diameter were developed, the mice were randomly separated into five different groups (Table 6). Intraperitoneal administrations of arginase drugs or control vehicle (PBS) were given twice per week while 5-fluorouracil was given once per week starting from Day 0. Tumour dimensions (L: longest diameter and W: its perpendicular diameter) and body weights were measured on every Mondays, Wednesdays and Fridays with Vernier caliper. Tumour volume was calculated with the formula (½×L×W^2) and no. of fold increase in tumour volume (relative tumour volume) was calculated with reference to Day-0. The results were plotted against time. The mice were euthanized at the end of experiment or when tumour diameter reached 2.5 cm.

[2] = tested on: blood arginine; assay: Pharmacodynamics: depletion of arginine in BALB/c normal mice; assay type: in vivo; details: plasma, single i.p. dose
Protocol: Pharmacodynamics of Cys^45 pegylated human arginase I and Cys^161 pegylated Bacillus caldovelox arginase were studied using BALB/c normal mice. The study was carried out in conjunction with the pharmacokinetic study (described below). Therefore, the protocol remained the same. Again, the blood samples collected was centrifuged immediately at 13,200 rpm for 5 minutes and the plasma layer were collected for further analysis using the Amino Acid Analyzer (Biochrom 30, Biochrom Ltd., England).

[3] = tested on: hepatocellular carcinoma Hep3B cells; assay type: in vivo, BALB/c nude mice; details: for effect on tumour growth (tumour volume) vs PBS control: 500 Units/mouse i.p. weekly for 8 weeks, HAI-PEG20 effect from Day 47 (p<0.01); for average body weight: mouse, in vivo, ip
Protocol: A number of BALB/c nude mice were injected with hepatocellular carcinoma Hep3B cells intraperitoneally (i.p.) and maintained in vivo. Then each of the 30 BALB/c nude mice was injected with ˜1×10^6 of the in vivo maintained cancer cells to the right axilla subcutaneously. When palpable tumours of 5 mm diameter were developed, the mice were separated into three different groups (see Table 3). Drugs or PBS buffer were administered intraperitoneally weekly starting on day 0 for 8 weeks. Body weights and tumour dimensions (L: length of the longer diameter and W: length of the shorter diameter of the tumour) were measured twice a week. Tumour volume (½×L×W^2) was calculated and plotted against time. After 60 days or when tumour diameter reached 2.5 cm, the mice were euthanized. Survival rates of the mice were recorded at the end of the study.

[4] = tested on: HIV-1 strain RF; assay: HIV replication (virus inhibition) assay in H9 cells
[5] = tested on: MDA-MB-231; assay: Cell proliferation assay (MTT, Table 11); assay type: cell-based; details: MDA-MB-231 breast, 3 days
[6] = tested on: 4T1; assay: Cell proliferation assay (MTT, Table 11); assay type: cell-based, mouse; details: 4T1 breast, 3 days
Protocol: 1×10^5 cells of a mouse metastatic breast cancer cell line (4T1) were injected orthotopically into the No. 4 inguinal mammary fat pad of wild-type BALB/c mice at the age of 6-8 weeks. When the tumors reached an average of 5 mm, the mice were divided into two different treatment groups (Table 7). BCA-PEG20 (250 U/mouse) or control vehicle (PBS) were injected intraperitoneally twice per week starting from Day 0. Body weight was measured every week. After three weeks, the mice were sacrificed and analyzed for the lung metastasis. The number of lung metastases was counted under a dissecting microscope after rinsing with PBS.
Cell Proliferation Assay: For each cancer cell line, cells (5×10^3) in 100 μL culture medium were seeded to the wells of a 96-well plate and incubated for 24 hours by standard method.

[7] = Steady-state kinetics of human arginase I with Mn2+ or Co2+ (DAMO assay); assay type: biochemical; details: for Km: sodium phosphate buffer pH 7.4, 25° C.
Protocol: Diacetylmonoxine (DAMO) assay was used to determine the kinetic parameters of human arginase with different metal cofactors. All enzymatic reactions were carried out at pH 7.4.

[8] = sodium phosphate buffer pH 7.4, 25° C.
Protocol: Either Bacillus caldovelox arginase (BCA) or the human arginase I (HAI) was expressed as described previously. The purification method was the same as described before except 10 mM of metal ion (CoSO4 or MnSO4) was added into the purified protein elution from Nickel affinity chromatography instead of added before Nickel affinity chromatography. Eluted factions containing the arginase enzyme were incubated with 10 mM metal for 15 min at 50˜55° C., followed by filtration through a 0.45 μm syringe filter. Then the solution was exchanged with storage buffer by ultrafiltration.
The mutant genes were cloned, expressed and purified for detailed studies.

In the case of O=c1[nH]cc(F)c(=O)[nH]1 [5-fluorouracil], the “effect on tumour growth vs control” value ([1]; arginases i.p. twice per week (BCA 500, BCA-PEG20 250 Units/mouse), 5-fluorouracil 10 mg/kg once per week) is reported as “did not show significant tumour suppression” and the “average body weight, last recorded” value ([1]; mouse, in vivo) is reported as 24.5 ± 1.4 g.

B1: HAI-PEG20: Cys^45-specific mono-pegylated 6xHis-tagged human arginase I mutant (C168S/C303S) with single chain mPEG-maleimide (20 kDa) (conjugate, UniProt P05089 1-322, looked up, variant C168S C303S)
Arginase-1: MSAKSRTIGIIGAPFSKGQPRGGVEEGPTVLRKAGLLEKLKEQECDVKDYGDLPFADIPNDSPFQIVKNPRSVGKASEQLAGKVAEVKKNGRISLVLGGDHSLAIGSISGHARVHPDLGVIWVDAHTDINTPLTTTSGNLHGQPVSFLLKELKGKIPDVPGFSWVTPSISAKDIVYIGLRDVDPGEHYILKTLGIKYFSMTEVDRLGIGKVMEETLSYLLGRKKRPIHLSFDVDGLDPSFTPATGTPVVGGLTYREGLYITEEIYKTGLLSGLDIMEVNPSLGKTPEEVTRTVNTAVAITLASFGLAREGNHKPIDYLNPPK
modifications: 20 kDa mPEG-maleimide at Cys45; 6xHis tag
With B1 the “time at which arginine started to appear after arginase administration” value [2] was 6.8 ± 2.3 days, the arginine depletion ([2]; starting from 6 hr (Day 0)) was “totally depleted” and the ornithine level ([2]; stayed at high level up to Day 3) was over 150 µM. For the same molecule, the “effect on tumour growth (tumour volume) vs PBS control” value [3] was “significantly reduced the rate of tumour growth”, the average body weight [3] was 25.0 ± 0.2 g and the “wells displaying cytopathic effect (positive wells/wells inoculated)” value ([4]; 1 U/mL) was 8/8. For the same molecule, the “wells displaying cytopathic effect (positive wells/wells inoculated)” value ([4]; 10 U/mL) was 6/8, the “wells displaying cytopathic effect (positive wells/wells inoculated)” value ([4]; 50 U/mL) was 3/8 and the “IC50 on HIV” value ([4]; H9 cells, five days post infection, cytopathic effect) was “approximately 37 U/mL”.

B2: HAI: non-pegylated 6xHis-tagged recombinant human arginase I (protein, UniProt P05089 1-322, looked up)
Arginase-1: B1 Arginase-1 with S168C, S303C
modifications: 6xHis tag
notes: non-pegylated 6xHis-tagged recombinant human arginase I
With B2 the “effect on tumour growth (tumour volume) vs PBS control” value [3] was “did not show any significant effect”, the average body weight [3] was 25.5 ± 0.2 g and the IC50 [5] was 0.273 U/mL. The IC50 [6] was 0.058 U/mL.

B3: HAI Mn^2+: recombinant human arginase I with Mn^2+ as metal cofactor (protein, UniProt P05089 1-322, looked up)
Arginase-1: B1 Arginase-1 with S168C, S303C
modifications: Mn2+ cofactor
notes: recombinant human arginase I with Mn^2+ as metal cofactor
For B3, the Km [7] was 1830 µM.

B4: HAI Co^2+: recombinant human arginase I with cobalt replacing manganese as metal cofactor (protein, UniProt P05089 1-322, looked up)
Arginase-1: B1 Arginase-1 with S168C, S303C
modifications: cobalt cofactor
In the case of B4, the “improvement of Km value vs HAI Mn^2+” value ([7]; pH 7.4, 25° C.) is reported as “about 10 fold” and the Km [7] is reported as 190 µM.

B5: BCA mutant V20P Mn^2+ (protein, UniProt P53608 1-299, looked up, variant V20P)
Arginase: MKPISIIGVPMDLGQTRRGPDMGPSAMRYAGVIERLERLHYDIEDLGDIPIGKAERLHEQGDSRLRNLKAVAEANEKLAAAVDQVVQRGRFPLVLGGDHSIAIGTLAGVAKHYERLGVIWYDAHGDVNTAETSPSGNIHGMPLAASLGFGHPALTQIGGYSPKIKPEHVVLIGVRSLDEGEKKFIREKGIKIYTMHEVDRLGMTRVMEETIAYLKERTDGVHLSLDLDGLDPSDAPGVGTPVIGGLTYRESHLAMEMLAEAQIITSAEFVEVNPILDERNKTASVAVALMGSLFGEKLM
modifications: Mn2+
Work on B5 yielded a Km [8] of about 1290 µM.

B6: BCAWTMn^2+: wild-type Bacillus caldovelox arginase with Mn^2+ (protein, UniProt P53608 1-299, looked up)
Arginase: B5 Arginase with P20V
modifications: Mn2+
For B6, the Km [8] was about 3200 µM.

B7: BCA mutant V20P Co^2+ (protein, UniProt P53608 1-299, looked up, variant V20P)
Arginase: B5 Arginase
modifications: Co2+
In the case of B7, the Km [8] is reported as about 180 µM.
